Assay [1] has as its target T1, soluble adenylyl cyclase chimera IC1 IIC2 -L3 (C1a of type I adenylyl cyclase, residues 271-484, linked to C2a of type II adenylyl cyclase, residues 821-1090) (UniProt P19754+P26769).
T1 construct: IC1a includes residues 271-484 of type I adenylyl cyclase; IIC2a includes residues 821-1090 of type II adenylyl cyclase; made in house; host or cells: E. coli TP2000 (150,000 g supernatant)
The experiment in a line: Adenylyl cyclase activity of 150,000 g supernatant from E. coli expressing IC1 IIC2 -L3. It counts as biochemical, mammalian. The method, then:
FIG. 2--Enzyme activity of chimeras.
Data shown are representative of at least two studies.
E. coli that contained the desired plasmids were grown in LB plus 50 μM carbenicillin to OD600 =0.3. Isopropyl-β-D-thiogalactopyranoside(100 μM) and chloramphenicol (0.5 μM) were added to induce expression of adenylyl cyclase for 12 hours. Bacteria were then collected by centrifugation at 4° C. and lysed by incubation at 4° C. for 30 min in 20 mM Tris-HCl (pH 8.0), 1 mM EDTA, 2 mM dithiothreitol (DTT) and protease inhibitors with 0.1 mg/ml of lysozyme. The suspension was sonicated briefly (3×20 sec) during incubation. The lysate was centrifuged (4° C.) at 150,000×g for 30 min, and the supernatant was recovered.
The inventors examined adenylyl cyclase activity in vitro in 150,000 g supernatant fractions from E. coli […] transformed with the various constructs. […] Ca^2+ -calmodulin had no detectable effect on activity, and lysates from cells expressing either IC1 or IIC2 had little adenylyl cyclase activity.
However, the maximal stimulatory effect of the G protein α subunit exceeded that of forskolin (FIG. 4). […] Synergistic activation of the enzyme was thus not due to alternation of apparent substrate affinity.

Assay [2] deals with IC1 (C1a domain of type I adenylyl cyclase, construct of Example 5) (Bos taurus (Bovine)).
Assay [3] has the same target. This is another data set of the same source.
Assay [4] shares this target. The experiment in a line: estimated from the adenylyl cyclase activity of 0.1 µM IC1 titrated with IIC2 without activator (FIG. 13A, model of FIG. 15); no direct binding assay.
The target in assay [5] is mixture of IC1 and IIC2 (non-covalent complex of the C1 domain of type I and the C2 domain of type II adenylyl cyclase) (Bos taurus (Bovine); Rattus norvegicus (Rat)).
Assay [6] shares this target. The experiment in a line: equilibrium constant of the model of FIG. 15, derived from the EC50 of activated Gsα for adenylyl cyclase activity of mixed IC1 and IIC2; no direct binding assay.
The target of assay [7] is IC1 IIC2 -L3.
In assay [8] the target is IC1 IIC2 -L5.
The target in assay [9] is IC1 IIC2 -L3. The source holds these as a separate data set.
Assay [10] addresses IC1 IIC2 -L1.

pKd: −log10 of the molar value. Some results are limits rather than exact numbers.

The source of these data is patent US6107076A, “Soluble mammalian adenylyl cyclase and uses therefor” (Board of Regents, The University of Texas System, priority 1996, dated 2000).

T1 sequence (P19754+P26769 fused, change not shown): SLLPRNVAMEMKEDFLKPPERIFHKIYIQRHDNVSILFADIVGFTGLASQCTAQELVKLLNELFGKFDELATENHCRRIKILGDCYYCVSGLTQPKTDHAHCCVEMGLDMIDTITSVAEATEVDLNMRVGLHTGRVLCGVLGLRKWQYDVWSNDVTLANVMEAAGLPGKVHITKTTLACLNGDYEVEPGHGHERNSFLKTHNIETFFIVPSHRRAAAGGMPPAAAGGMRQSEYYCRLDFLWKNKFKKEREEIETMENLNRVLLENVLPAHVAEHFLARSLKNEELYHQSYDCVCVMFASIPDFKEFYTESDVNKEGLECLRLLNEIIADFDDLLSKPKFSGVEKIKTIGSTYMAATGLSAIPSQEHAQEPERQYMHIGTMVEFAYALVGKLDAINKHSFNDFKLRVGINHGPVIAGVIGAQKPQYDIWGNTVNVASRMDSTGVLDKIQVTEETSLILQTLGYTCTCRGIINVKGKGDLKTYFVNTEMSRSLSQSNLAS

In the case of `C=CC1(C)CC(=O)C2C3(C)CCCC(C)(C)C3C(O)C(OC(C)=O)C2(C)O1` (stereo not drawn) [1,9-dideoxyforskolin], in assay [1] (150,000 g supernatant, FIG. 3), the “stimulation of adenylyl cyclase activity” value is on record as “failed to stimulate”.
As for `Nc1ncnc2c1ncn2[C@H]1C[C@H](OP(=O)(O)O)[C@@H](CO)O1` [2'-deoxy-3'-AMP], the “inhibition of adenylyl cyclase activity (P-site inhibitor), mode” value in assay [1] (forskolin-activated enzyme, FIG. 7) is “inhibited noncompetitively”.
The compound “IIC2 (C2 domain of type II adenylyl cyclase, construct of Example 5) (enzyme)” had an EC50 for IIC2, adenylyl cyclase activity with IC1 in the absence of activators in assay [2] greater than 10000 nM. Moreover, in [3], the apparent EC50 for IIC2, adenylyl cyclase activity with 8 nM IC1, 50 µM FSK and 10 µM GTP[γS]-Gsα was determined as 15 nM; the apparent EC50 for IIC2, adenylyl cyclase activity with 8 nM IC1 and 50 µM FSK stood at 190 nM. For the same compound, in [4], the pKd is less than 5.00.
On to “wild-type alpha subunit of the G protein (Gsα)”, for which the adenylyl cyclase activity of purified mixed fragments (8 nM IC1, 6.6 µM IIC2) against the concentration of activated Gsα in assay [5] was greater than 100 fold. The K4 in assay [6] came to 0.4 µM. In assay [7], this compound registered an EC50 for activation of adenylyl cyclase activity of 1000 nM. Further, the adenylyl cyclase activity of 150,000 g supernatant in assay [8], in [9] and in assay [10] was 50 fold in each case.

The pKd is −log10 of the Kd, conventionally taken in molar units.
